Reference: patent US6537785

Tests used:
[1] = molecular target: uteroferrin (UniProt P09889)
[2] = test system: cathepsin D
[3] = molecular target: RNAse B (UniProt P61823)
Chain of UniProt P61823 (P61823 27-150): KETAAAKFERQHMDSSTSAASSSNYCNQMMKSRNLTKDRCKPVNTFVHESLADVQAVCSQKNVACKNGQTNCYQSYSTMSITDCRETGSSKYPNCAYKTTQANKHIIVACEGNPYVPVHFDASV

Chain of UniProt P09889 (P09889 22-340): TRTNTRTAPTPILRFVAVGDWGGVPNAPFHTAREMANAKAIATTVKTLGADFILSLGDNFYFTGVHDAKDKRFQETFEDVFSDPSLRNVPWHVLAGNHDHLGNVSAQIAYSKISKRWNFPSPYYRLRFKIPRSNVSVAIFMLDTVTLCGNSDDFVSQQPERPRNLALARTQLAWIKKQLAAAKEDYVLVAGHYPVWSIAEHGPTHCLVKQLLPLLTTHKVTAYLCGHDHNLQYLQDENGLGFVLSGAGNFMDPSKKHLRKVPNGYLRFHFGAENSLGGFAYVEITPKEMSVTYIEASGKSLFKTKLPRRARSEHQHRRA

How did the “Km (transfer of GlcNAc-1-P to glycoprotein acceptor)” value [1] turn out when “bovine GlcNAc-phosphotransferase (UDP-N-acetylglucosamine: lysosomal enzyme N-Acetylglucosamine-1-phosphotransferase)” was run?
Its value is “Kms below 20 µM”.

What about the “Km (transfer of GlcNAc-1-P to glycoprotein acceptor)” value [2] of the same substance?
Its value is “Kms below 20 µM”.

What about the “Km (transfer of GlcNAc-1-P to glycoprotein acceptor)” value [3] of the same substance?
Its value is “the Km was not reached at the solubility limit of the protein (at 600 µM)”.
